# B1: pUR4: 49-mer peptide derived from the bacterial F1 adhesin, His tagged, SEQ ID NO:1; class I fibronectin polymerization inhibitor (peptide)
# chain: MRGSHHHHHHGSKDQSPLAGESGETEYITEVYGNQQNPVDIDKKLPNETGFSGNMVETEDTKLN
# modifications: His tag; Bacterial adhesin derived peptide pUR4
# Legend:
# [1] = test system: left carotid artery of FVB mice; assay: Carotid ligation model, quantitative immunohistochemistry; format: in vivo, mouse
# Experimental: Sections selected from the first millimeter of the carotid artery in each group were used for immunohistochemistry (IHC). Endogenous peroxidase activity was blocked with 3% H2O2, followed by incubation with Dako serum-free blocking solution (Dako; Glostrup, Denmark). The primary antibodies used were: polyclonal anti-fibronectin (Chemicon/Millipore, Billerica, Mass.), polyclonal anti-collagen type I (LF-67; a gift from Dr. Fisher, NIH, Bethesda, Md.), monoclonal anti-proliferating cell nuclear antigen (PCNA) (Sigma, St. Louis, Mo.), polyclonal anti-smooth muscle myosin heavy chain (SMMHC) (Biomedical Technologies Inc., Stoughton, Mass.), monoclonal smooth muscle-actin (SM-actin) (Dako), anti-leukocyte common antigen, CD45 (BD Pharmingen, San Jose, Calif.), monoclonal anti-intercellular adhesion molecule-1 (ICAM-1) (BD Pharmingen), and polyclonal anti-vascular cell adhesion molecule-1 (VCAM-1) (Santa Cruz Biotechnology, Santa Cruz, Calif.). Antigen retrieval for anti-fibronectin and anti-collagen type I antibodies was performed by incubating sections with proteinase K in 0.05M Tris-HCL buffer. Antigen retrieval for CD 45 antibody was performed by incubating sections with 10 mM citrate buffer (pH=6) at 120° C. Sections were then incubated with appropriate biotinylated secondary antibodies followed by avidin-biotin immunoperoxidase system (Vector Laboratories, Burlingame, Calif.). Liquid DAB Substrate Chromogen system (Dako) or Vector Red (Vector) was used for detection. PCNA, CD45, ICAM-1, and VCAM-1-immunostained sections were counterstained with hematoxylin.
# Quantitative IHC analysis was performed using Image-Pro Plus software. Data from 3-5 mice were averaged, and the average values ±s.e.m. determined. For fibronectin, collagen type I, SMMHC, and SMα-actin, color digital images were captured using a 40× objective and transformed into gray scale. Sixteen fields of view of equal size per section in the media or adventitia were randomly chosen, and the mean of the optical densities from the sixteen fields of view was determined. Three sections were analyzed per animal. For quantitative comparison of leukocyte infiltration and cell adhesion molecule expression, images were acquired using a 60× objective. The CD45, ICAM-1, and VCAM-1-positive areas were obtained using an automated programmed segmentation procedure in ImagePro. The intima plus media or adventitial regions were traced manually. The percent of the positively stained area to the total traced area was determined. For evaluation of proliferating cells, the percent of PCNA (+) cells to total cells was determined by counting cell numbers in PCNA-stained sections that had been counterstained with hematoxylin. The percent positive cells is reported as the proliferation index. To determine the SMC density, sections were stained with hematoxylin, and cells present in the media were counted. The data is expressed as number of cells/μm^2.
# Blood flow in the left carotid artery of 10-week-old FVB/NJ (FVB) mice was reduced by ligating the external and internal carotid arterial branches as described (Korshunov et al., “Flow-Induced Vascular Remodeling in the Mouse: A Model for Carotid Intima-Media Thickening,” Arterioscler. Thromb. Vasc. Biol. 23:2185-2191 (2003), which is hereby incorporated by reference in its entirety). Mice were anesthetized with an intraperitoneal injection of ketamine (80 mg/kg) and xylazine (5 mg/kg) as described in the above-cited referenced. The left common carotid artery was dissected free of the surrounding connective tissue and 50 μL of F-127 pluronic gel (BASF) containing 20 μmol/L pUR4 or III-11C was applied around the carotid artery. […]
# Mouse carotid arteries = assay: qRT-PCR of fibronectin and collagen I in carotid arteries after ligation; format: in vivo; conditions: III-11C set equal to 1, mean ± s.e.m., 3 arteries
# Experimental: mRNA was isolated from RASMs 24 hours after incubation with 500 nM pUR4 or III-11C control peptides using RNAzol as per the manufacturer's instructions (Invitrogen). cDNA was prepared using a Superscript First Strand cDNA kit as per the manufacturer's instructions (Invitrogen). Mouse carotid arteries were harvested and frozen in liquid nitrogen. RNA was isolated using Trizol and purified using a QIAgen RNeasy Micro Kit. RNA integrity was examined with an Agilent 2100 Bioanalyser using RNA6000 NanoAssay (Agilent Technology). Whole transcriptome amplification was performed using Qiagen's QuantiTect Whole Transcriptome Amplification Kit. Quantitative RT-PCR analyses were performed using ABI Prism 7900HT sequence detection system (Applied Biosystems). The qRT-PCR primers for 3 mouse genes were obtained from ABI: GADPH (4352932E), fibronectin (Mm01256744_m1), and collagen Ia1 (Mm00801666_g1). TaqMan probe chemistry was used according to the manufacturer's instructions. qRT-PCR reactions were run in triplicate for each sample. The data was normalized to the levels of GAPDH in each sample, and the results were averaged.
# Blood flow in the left carotid artery of 10-week-old FVB/NJ (FVB) mice was reduced by ligating the external and internal carotid arterial branches as described (Korshunov et al., “Flow-Induced Vascular Remodeling in the Mouse: A Model for Carotid Intima-Media Thickening,” Arterioscler. Thromb. Vasc. Biol. 23:2185-2191 (2003), which is hereby incorporated by reference in its entirety). Mice were anesthetized with an intraperitoneal injection of ketamine (80 mg/kg) and xylazine (5 mg/kg) as described in the above-cited referenced. The left common carotid artery was dissected free of the surrounding connective tissue and 50 μL of F-127 pluronic gel (BASF) containing 20 μmol/L pUR4 or III-11C was applied around the carotid artery. Animals were separated into 5 groups containing 5 to 10 animals each: (1) sham-operated, in which the branches of the left carotid artery were exposed and dissected out, but not ligated; (2) ligation; (3) ligation with pluronic gel; (4) ligation with pluronic gel containing III-11C; (5) ligation with pluronic gel containing pUR4.
# [2] = test system: cell spreading or adhesion to collagen or fibronectin; conditions: cited from earlier work
molecule,measurement,setting,value
B1,accumulation of collagen I and fibronectin in the media and adventitia,"[1]; 7 and 14 days after surgery, vs control animals",dramatic reduction
same,SMC dedifferentiation (SM α-actin and SM myosin heavy chain staining in the media),[1]; 7 days after ligation,prevented
same,adhesion molecule expression (ICAM-1 and VCAM-1 levels in the vessel wall),[1]; 7 days after ligation,dramatic decrease
same,"decrease of leukocyte (CD45) infiltration into the intima, media, and adventitia",[1]; 7 days after surgery,80%
same,increased fibronectin deposition,[1]; 7 days after surgery,totally prevented
same,prevention of increase in cell density in the media,[1]; 7 days after surgery,75%
same,cell density in the media,"[1]; 7 days after surgery, ligated 6.7×10^−3, sham 5.0×10^−3",5.3×10^−3 cells/mm^2
same,reduction in cell proliferation (PCNA) in the adventitia,[1]; 7 days post ligation,61%
same,reduction in cell proliferation (PCNA) in the intima-media,[1]; 7 days post ligation,70%
same,fibronectin and collagen levels vs control peptide-treated animals,[1]; 14 days after surgery,still decreased
same,"Col Ia1 mRNA, relative level, Day 4",Mouse carotid arteries; 4 days post surgery,0.60 ± 0.30
same,"Fibronectin mRNA, relative level, Day 4",Mouse carotid arteries; 4 days post surgery,0.70 ± 0.23
same,"Col Ia1 mRNA, relative level, Day 7",Mouse carotid arteries; 7 days post surgery,0.58 ± 0.36
same,"Fibronectin mRNA, relative level, Day 7",Mouse carotid arteries; 7 days post surgery,0.41 ± 0.23
same,inhibition of cell spreading or adhesion to collagen or fibronectin,[2],does not inhibit

# From patent publication US9364516B2, “Treatment of fibrosis-related disorders using fibronectin binding proteins and polypeptides” (priority 2010, dated 2016)
